# Laboratory results reported in US20090317363A1.
# Biological target: CCR5 (UniProt P51681)
# Test: cell-based or functional assay
Binder,CCR5 sequestration (%) (% of control surface CCR5),CCR5 signalling (%) (% of Emax of PSC-RANTES),"anti-HIV potency (IC50, nM) by cell fusion assay [nM]","anti-HIV potency (IC50, nM) by viral replication assay [nM]"
RANTES derivative: signature sequence SEQ ID NO: 40 fused to positions 10-68 of native RANTES (SEQ ID NO: 1) (ligand) QGPPMSWSQSCCFAYIARPLPRAHIKEYFYTSGKCSNPAVVFVTRKNRQVCANPEKKWVREYINSLEMS,6,0,0.11,–
RANTES derivative: signature sequence SEQ ID NO: 45 fused to positions 10-68 of native RANTES (SEQ ID NO: 1) (ligand) QGPPLMSLTVCCFAYIARPLPRAHIKEYFYTSGKCSNPAVVFVTRKNRQVCANPEKKWVREYINSLEMS,62,77.4,0.02,–
RANTES derivative: signature sequence SEQ ID NO: 52 fused to positions 10-68 of native RANTES (SEQ ID NO: 1) (ligand) QGPPLMALSVCCFAYIARPLPRAHIKEYFYTSGKCSNPAVVFVTRKNRQVCANPEKKWVREYINSLEMS,11,8.3,0.02,–
RANTES derivative: signature sequence SEQ ID NO: 46 fused to positions 10-68 of native RANTES (SEQ ID NO: 1) (ligand) QGPLSGWAQVCCFAYIARPLPRAHIKEYFYTSGKCSNPAVVFVTRKNRQVCANPEKKWVREYINSLEMS,72,97.6,0.4,–
RANTES derivative: signature sequence SEQ ID NO: 67 fused to positions 10-68 of native RANTES (SEQ ID NO: 1) (ligand) QGPPLMSAQSCCFAYIARPLPRAHIKEYFYTSGKCSNPAVVFVTRKNRQVCANPEKKWVREYINSLEMS,15,10.3,0.12,–
RANTES derivative: signature sequence SEQ ID NO: 62 fused to positions 10-68 of native RANTES (SEQ ID NO: 1) (ligand) QGPPLMSTQVCCFAYIARPLPRAHIKEYFYTSGKCSNPAVVFVTRKNRQVCANPEKKWVREYINSLEMS,45,29.6,0.03,–
RANTES derivative: signature sequence SEQ ID NO: 68 fused to positions 10-68 of native RANTES (SEQ ID NO: 1) (ligand) QGPPLMSGQSCCFAYIARPLPRAHIKEYFYTSGKCSNPAVVFVTRKNRQVCANPEKKWVREYINSLEMS,24,10.6,0.17,–
RANTES derivative: signature sequence SEQ ID NO: 44 fused to positions 10-68 of native RANTES (SEQ ID NO: 1) (ligand) QGPPLMSLAVCCFAYIARPLPRAHIKEYFYTSGKCSNPAVVFVTRKNRQVCANPEKKWVREYINSLEMS,60,68.5,0.02,–
RANTES derivative: signature sequence SEQ ID NO: 55 fused to positions 10-68 of native RANTES (SEQ ID NO: 1) (ligand) QGPPGSWSQVCCFAYIARPLPRAHIKEYFYTSGKCSNPAVVFVTRKNRQVCANPEKKWVREYINSLEMS,33,7.3,0.07,–
RANTES derivative: signature sequence SEQ ID NO: 59 fused to positions 10-68 of native RANTES (SEQ ID NO: 1) (ligand) QGPPGQWYQSCCFAYIARPLPRAHIKEYFYTSGKCSNPAVVFVTRKNRQVCANPEKKWVREYINSLEMS,15,6,0.23,–
RANTES derivative: signature sequence SEQ ID NO: 51 fused to positions 10-68 of native RANTES (SEQ ID NO: 1) (ligand) QGPPLQWTQVCCFAYIARPLPRAHIKEYFYTSGKCSNPAVVFVTRKNRQVCANPEKKWVREYINSLEMS,12,5,0.02,–
RANTES derivative: signature sequence SEQ ID NO: 53 fused to positions 10-68 of native RANTES (SEQ ID NO: 1) (ligand) QGPPLMWSQVCCFAYIARPLPRAHIKEYFYTSGKCSNPAVVFVTRKNRQVCANPEKKWVREYINSLEMS,16,5.1,0.02,–
RANTES derivative: signature sequence SEQ ID NO: 6 fused to positions 10-68 of native RANTES (SEQ ID NO: 1) (ligand) QGPPLMWLQTCCFAYIARPLPRAHIKEYFYTSGKCSNPAVVFVTRKNRQVCANPEKKWVREYINSLEMS,3,1.4,0.02,289
RANTES derivative: signature sequence SEQ ID NO: 60 fused to positions 10-68 of native RANTES (SEQ ID NO: 1) (ligand) QGPPLQWMQACCFAYIARPLPRAHIKEYFYTSGKCSNPAVVFVTRKNRQVCANPEKKWVREYINSLEMS,8,11.8,0.02,–
RANTES derivative: signature sequence SEQ ID NO: 50 fused to positions 10-68 of native RANTES (SEQ ID NO: 1) (ligand) QGPPLQWFQVCCFAYIARPLPRAHIKEYFYTSGKCSNPAVVFVTRKNRQVCANPEKKWVREYINSLEMS,11,7.6,0.02,–
RANTES derivative: signature sequence SEQ ID NO: 47 fused to positions 10-68 of native RANTES (SEQ ID NO: 1) (ligand) QGPLSQSSQVCCFAYIARPLPRAHIKEYFYTSGKCSNPAVVFVTRKNRQVCANPEKKWVREYINSLEMS,78,96.9,0.44,–

Binder,CCR5 sequestration (%) (% of control surface CCR5),CCR5 signalling (%) (% of Emax of PSC-RANTES),"anti-HIV potency (IC50, nM) by cell fusion assay [nM]","anti-HIV potency (IC50, nM) by viral replication assay [nM]"
RANTES derivative: signature sequence SEQ ID NO: 66 fused to positions 10-68 of native RANTES (SEQ ID NO: 1) (ligand) QGPPLMSVQSCCFAYIARPLPRAHIKEYFYTSGKCSNPAVVFVTRKNRQVCANPEKKWVREYINSLEMS,42,33.4,0.07,–
RANTES derivative: signature sequence SEQ ID NO: 41 fused to positions 10-68 of native RANTES (SEQ ID NO: 1) (ligand) QGPPLMNLQVCCFAYIARPLPRAHIKEYFYTSGKCSNPAVVFVTRKNRQVCANPEKKWVREYINSLEMS,9,0,0.12,–
RANTES derivative: signature sequence SEQ ID NO: 64 fused to positions 10-68 of native RANTES (SEQ ID NO: 1) (ligand) QGPPLMSLQSCCFAYIARPLPRAHIKEYFYTSGKCSNPAVVFVTRKNRQVCANPEKKWVREYINSLEMS,28,17.2,0.04,–
RANTES derivative: signature sequence SEQ ID NO: 57 fused to positions 10-68 of native RANTES (SEQ ID NO: 1) (ligand) QGPPLMGLSVCCFAYIARPLPRAHIKEYFYTSGKCSNPAVVFVTRKNRQVCANPEKKWVREYINSLEMS,18,4.9,0.16,–
RANTES derivative: signature sequence SEQ ID NO: 48 fused to positions 10-68 of native RANTES (SEQ ID NO: 1) (ligand) QGPLSSQSQVCCFAYIARPLPRAHIKEYFYTSGKCSNPAVVFVTRKNRQVCANPEKKWVREYINSLEMS,78,100,0.64,–
RANTES derivative: signature sequence SEQ ID NO: 42 fused to positions 10-68 of native RANTES (SEQ ID NO: 1) (ligand) QGPPMSAYQVCCFAYIARPLPRAHIKEYFYTSGKCSNPAVVFVTRKNRQVCANPEKKWVREYINSLEMS,0,0.2,0.16,–
RANTES derivative: signature sequence SEQ ID NO: 54 fused to positions 10-68 of native RANTES (SEQ ID NO: 1) (ligand) QGPPGQWGQVCCFAYIARPLPRAHIKEYFYTSGKCSNPAVVFVTRKNRQVCANPEKKWVREYINSLEMS,12,2.1,0.06,–
RANTES derivative: signature sequence SEQ ID NO: 7 fused to positions 10-68 of native RANTES (SEQ ID NO: 1) (ligand) QGPPLMWTQVCCFAYIARPLPRAHIKEYFYTSGKCSNPAVVFVTRKNRQVCANPEKKWVREYINSLEMS,10,0.7,0.02,0.179
RANTES derivative: signature sequence SEQ ID NO: 63 fused to positions 10-68 of native RANTES (SEQ ID NO: 1) (ligand) QGPPLMSLSVCCFAYIARPLPRAHIKEYFYTSGKCSNPAVVFVTRKNRQVCANPEKKWVREYINSLEMS,50,42.7,0.03,–
RANTES derivative: signature sequence SEQ ID NO: 61 fused to positions 10-68 of native RANTES (SEQ ID NO: 1) (ligand) QGPPLQWMQVCCFAYIARPLPRAHIKEYFYTSGKCSNPAVVFVTRKNRQVCANPEKKWVREYINSLEMS,7,12.7,0.02,–
RANTES derivative: signature sequence SEQ ID NO: 43 fused to positions 10-68 of native RANTES (SEQ ID NO: 1) (ligand) QGPPMQGGLSCCFAYIARPLPRAHIKEYFYTSGKCSNPAVVFVTRKNRQVCANPEKKWVREYINSLEMS,4,0.3,0.29,–
RANTES derivative: signature sequence SEQ ID NO: 65 fused to positions 10-68 of native RANTES (SEQ ID NO: 1) (ligand) QGPPLMSLQACCFAYIARPLPRAHIKEYFYTSGKCSNPAVVFVTRKNRQVCANPEKKWVREYINSLEMS,30,11.5,0.04,–
RANTES derivative: signature sequence SEQ ID NO: 49 fused to positions 10-68 of native RANTES (SEQ ID NO: 1) (ligand) QGPLGQQGQVCCFAYIARPLPRAHIKEYFYTSGKCSNPAVVFVTRKNRQVCANPEKKWVREYINSLEMS,77,97.2,0.74,–
RANTES derivative: signature sequence SEQ ID NO: 58 fused to positions 10-68 of native RANTES (SEQ ID NO: 1) (ligand) QGPPLMTLQVCCFAYIARPLPRAHIKEYFYTSGKCSNPAVVFVTRKNRQVCANPEKKWVREYINSLEMS,25,0.7,0.23,–
RANTES derivative: signature sequence SEQ ID NO: 56 fused to positions 10-68 of native RANTES (SEQ ID NO: 1) (ligand) QGPPLMSSQSCCFAYIARPLPRAHIKEYFYTSGKCSNPAVVFVTRKNRQVCANPEKKWVREYINSLEMS,15,7.5,0.15,–
